Reference: the Human Domainome abundance scans (Beltran et al. 2025)
± gives the uncertainty stated by the source.

B1: POU domain, class 5, transcription factor 1, residues 134 to 212; numbered along this chain, Q01860 (parent)
chain: EESQDIKALQKELEQFAKLLKQKRITLGYTQADVGLTLGVLFGKVFSQTTICRFEALQLSFKNMCKLRPLLQKWVEEAD

Variants of: B1
Assay: abundance fitness (aPCA) (normalised: wild type 0, dead -1); higher = more abundant; growth selection in yeast, the domain comes from the species named
Conditions: Homo sapiens

**Q.** Which abundance fitness does the source give for F61K here?
**A.** -0.206 ± 0.16

**Q.** For F61I, which abundance fitness is on record?
**A.** 0.132 ± 0.24

**Q.** For F61Q, which abundance fitness is on record?
**A.** -0.111 ± 0.17

**Q.** For F61G, which abundance fitness is on record?
**A.** -0.466 ± 0.092

**Q.** For G28V, which abundance fitness is on record?
**A.** -0.787 ± 0.19

**Q.** For G28L, which abundance fitness is on record?
**A.** -0.76 ± 0.22

**Q.** For G28T, which abundance fitness is on record?
**A.** -0.738 ± 0.37

**Q.** With G28A as the variant, how does the abundance fitness read?
**A.** -1.06 ± 0.3

**Q.** With G28R as the variant, how does the abundance fitness read?
**A.** -0.555 ± 0.13

**Q.** With G28S as the variant, how does the abundance fitness read?
**A.** -0.839 ± 0.32

**Q.** Which abundance fitness does the source give for Q15D here?
**A.** 0.089 ± 0.18

**Q.** For Q15S, which abundance fitness is on record?
**A.** -0.094 ± 0.12

**Q.** Which abundance fitness does the source give for Q15G here?
**A.** 0.008 ± 0.086

**Q.** With Q15E as the variant, how does the abundance fitness read?
**A.** 0.07 ± 0.15

**Q.** For Q15H, which abundance fitness is on record?
**A.** -0.27 ± 0.3

**Q.** With Q15R as the variant, how does the abundance fitness read?
**A.** -0.181 ± 0.083

**Q.** Which abundance fitness does the source give for T37Y here?
**A.** -0.193 ± 0.38

**Q.** Which abundance fitness does the source give for T37D here?
**A.** 0.412 ± 0.14

**Q.** With T37K as the variant, how does the abundance fitness read?
**A.** 0.082 ± 0.16

**Q.** With T37G as the variant, how does the abundance fitness read?
**A.** 0.296 ± 0.06

**Q.** For T37H, which abundance fitness is on record?
**A.** 0.162 ± 0.2

**Q.** With D5T as the variant, how does the abundance fitness read?
**A.** -0.141 ± 0.4

**Q.** For D5A, which abundance fitness is on record?
**A.** -0.126 ± 0.21

**Q.** With D5G as the variant, how does the abundance fitness read?
**A.** -0.331 ± 0.2

**Q.** Which abundance fitness does the source give for Q22M here?
**A.** -0.189 ± 0.45

**Q.** For Q22F, which abundance fitness is on record?
**A.** 0.56 ± 0.4

**Q.** Which abundance fitness does the source give for T49C here?
**A.** -0.524 ± 0.27

**Q.** With T49N as the variant, how does the abundance fitness read?
**A.** -0.111 ± 0.24

**Q.** For T49V, which abundance fitness is on record?
**A.** -0.272 ± 0.097

**Q.** With T49G as the variant, how does the abundance fitness read?
**A.** -0.243 ± 0.082

**Q.** With T49A as the variant, how does the abundance fitness read?
**A.** 0.02 ± 0.11

**Q.** Which abundance fitness does the source give for T49P here?
**A.** -0.281 ± 0.23

**Q.** For K7F, which abundance fitness is on record?
**A.** -0.257 ± 0.13

**Q.** Which abundance fitness does the source give for K7Q here?
**A.** -0.142 ± 0.1

**Q.** Which abundance fitness does the source give for K7D here?
**A.** 0.061 ± 0.098

**Q.** With K7N as the variant, how does the abundance fitness read?
**A.** -0.022 ± 0.14

**Q.** With I25E as the variant, how does the abundance fitness read?
**A.** -0.207 ± 0.38

**Q.** Which abundance fitness does the source give for I25V here?
**A.** 0.264 ± 0.16

**Q.** Which abundance fitness does the source give for E76W here?
**A.** -0.425 ± 0.19

**Q.** With E76K as the variant, how does the abundance fitness read?
**A.** -0.133 ± 0.14

**Q.** For E76F, which abundance fitness is on record?
**A.** -0.155 ± 0.27

**Q.** For E76L, which abundance fitness is on record?
**A.** -0.368 ± 0.15

**Q.** For E76A, which abundance fitness is on record?
**A.** -0.139 ± 0.13

**Q.** Which abundance fitness does the source give for E76S here?
**A.** -0.188 ± 0.15

**Q.** For E76R, which abundance fitness is on record?
**A.** -0.315 ± 0.095

**Q.** Which abundance fitness does the source give for E76H here?
**A.** -0.032 ± 0.32

**Q.** For E76D, which abundance fitness is on record?
**A.** 0.003 ± 0.19

**Q.** For M64F, which abundance fitness is on record?
**A.** -0.8 ± 0.47

**Q.** For M64Q, which abundance fitness is on record?
**A.** -0.802 ± 0.23

**Q.** For M64Y, which abundance fitness is on record?
**A.** -1.06 ± 0.5

**Q.** Which abundance fitness does the source give for M64D here?
**A.** -0.816 ± 0.32

**Q.** For M64G, which abundance fitness is on record?
**A.** -0.621 ± 0.12

**Q.** Which abundance fitness does the source give for M64E here?
**A.** -0.763 ± 0.23

**Q.** For E12T, which abundance fitness is on record?
**A.** -0.405 ± 0.17

**Q.** For E12P, which abundance fitness is on record?
**A.** -0.473 ± 0.42

**Q.** For E12H, which abundance fitness is on record?
**A.** -0.051 ± 0.4

**Q.** Which abundance fitness does the source give for E12F here?
**A.** 0.341 ± 0.3

**Q.** Which abundance fitness does the source give for E12V here?
**A.** -0.065 ± 0.097

**Q.** For F54W, which abundance fitness is on record?
**A.** -0.797 ± 0.22

**Q.** Which abundance fitness does the source give for F54V here?
**A.** -0.625 ± 0.18

**Q.** With F54R as the variant, how does the abundance fitness read?
**A.** -0.621 ± 0.12

**Q.** Which abundance fitness does the source give for F54M here?
**A.** -0.535 ± 0.24

**Q.** Which abundance fitness does the source give for F54C here?
**A.** -0.5 ± 0.38

**Q.** Which abundance fitness does the source give for F54S here?
**A.** -0.562 ± 0.24

**Q.** Which abundance fitness does the source give for V40I here?
**A.** 0.038 ± 0.27

**Q.** For V40K, which abundance fitness is on record?
**A.** 0.198 ± 0.16

**Q.** With V40S as the variant, how does the abundance fitness read?
**A.** -0.026 ± 0.14

**Q.** For V40D, which abundance fitness is on record?
**A.** -0.621 ± 0.44

**Q.** Which abundance fitness does the source give for V40C here?
**A.** 0.354 ± 0.23

**Q.** Which abundance fitness does the source give for V40L here?
**A.** -0.045 ± 0.13

**Q.** For V40W, which abundance fitness is on record?
**A.** -0.151 ± 0.14

**Q.** Which abundance fitness does the source give for G43S here?
**A.** -0.651 ± 0.46

**Q.** For E1G, which abundance fitness is on record?
**A.** 0.053 ± 0.073

**Q.** Which abundance fitness does the source give for E1M here?
**A.** 0.273 ± 0.15

**Q.** With E1W as the variant, how does the abundance fitness read?
**A.** -0.244 ± 0.33

**Q.** For S3L, which abundance fitness is on record?
**A.** 0.163 ± 0.38

**Q.** For L70P, which abundance fitness is on record?
**A.** -0.364 ± 0.22

**Q.** For E14D, which abundance fitness is on record?
**A.** -0.533 ± 0.39

**Q.** Which abundance fitness does the source give for E14C here?
**A.** -0.476 ± 0.24

**Q.** With W74E as the variant, how does the abundance fitness read?
**A.** -0.138 ± 0.34

**Q.** Which abundance fitness does the source give for W74G here?
**A.** -0.158 ± 0.18

**Q.** Which abundance fitness does the source give for L41R here?
**A.** -0.345 ± 0.15

**Q.** Which abundance fitness does the source give for L41T here?
**A.** -0.04 ± 0.35
